Assay results taken from US20120094909A1 (Bristol-Myers Squibb, published 2012).

Tests used:
[1] = target: T1, human PCSK9 (proprotein convertase subtilisin kexin type 9) (human, UniProt Q8NBP7 31-692); assay: cell-based or functional assay
[2] = target: T1, human PCSK9 (proprotein convertase …); assay: PCSK9:EGFA FRET, competitor EGFA peptide
[3] = target: T1, human PCSK9 (proprotein convertase …); assay: BLI (Octet Red), 37 C
Experimental: Tips were then immersed into a buffer-only well for observation of Adnectin dissociation. Experiments were performed in a temperature controlled environment at either 25 or 37° C., and the oscillation speed was set at 1500 rpm.
Binding interaction analysis was performed using proprietary software from Fortebio (Fortebio Data Analysis Software version 6.3.0.36). Global fits were performed for all samples, using a 1:1 binding model. The nature of these global fits constrained all values of concentration to a single pair of association and dissociation rates that were themselves constrained to each other. Affinities (KD), association and dissociation rates were averaged over the various loading levels used in the analysis.

[4] = target: T2, human PCSK9 (proprotein convertase subtilisin kexin type 9) (human, UniProt Q8NBP7 31-692); assay: FRET, competitor EGFA peptide
T2 construct: Directly immobilized (SPR ProteOn), biotinylated (BLI), or in solution, depending on the assay; also called hPCSK9
Source text: (§1) Table 11 summarizes the overall data from these three FRET assays.

cynomolgus monkey PCSK9 = cynomolgus monkey PCSK9 (cynomolgus monkey, UniProt A0A7N9D9N8 150-747); assay: FRET, competitor EGFA peptide
Source text: as §1

Row | LDLR Depletion (% inhibition at 75 nM) [1] [%] | EC50 [2] [nM] | Kd [3] [nM] | IC50 [4] [nM] | IC50 (cynomolgus monkey PCSK9) [nM] | Binder
1 | 53.4 | 5 | – | – | – | 2381H06 (designed binder) MGVSDVPRDLEVVAATPTSLLISWGDVRTNEARQGYYRITYGETGGNSPLQGFTVPGSKGTATISGLKPGVDYTITVYAVEYTYEHSGYYHRPISINYRTEIDKPSQHHHHHH
2 | 70.3 | 9.7 | – | – | – | 2451C11 (designed binder) MGIVDVPRDLEVVAATPTSLLISWDPPAGAYGYYRITYGETGGNSPKQQFTVPGYKGTATISGLKPGVDYTITVYAVEYPYDHSGYYHRPISINYRTEIDKPSQHHHHHH
3 | 125 | 2.5 | 3.29 | – | – | 2381B02 (designed binder) MGVSDVPRDLEVVAATPTSLLISWEPFSRLPGGGEYYRITYGETGGNSPLQQFTVPGSKGTATISGLKPGVDYTITVYAVEYPYDYSGYYHRPISINYRTEIDKPSQHHHHHH
4 | 96.4 | 7.3 | – | – | – | 2381B10 (designed binder) MGVSDVPRDLEVVAATPTSLLISWDAPAGGGYGYYRITYGETGGNSPVQEFTVPVSKGTATISGLKPGVDYTITVYAVEYNFIGAGYYHRPISINYRTEIDKPSQHHHHHH
5 | 61.5 | 3 | – | – | – | 2382E04 (designed binder) MGVSDVPRDLEVVAATPTSLLISWDAPAGGGYGYYRITYGETGGNSPVQEFTVPVSKGTATISGLKPGVDYTITVYAVEFTFPGAGYYHRPISINYRTEIDKPSQHHHHHH
6 | -6.3 | 2.6 | – | – | – | 2382F02 (designed binder) MGVSDVPRDLEVVAATPTSLLISWDAPAGGGYGYYRITYGETGGNSPVQEFTVPVSKGTATISGLKPGVDYTITVYAVEFDFPGSGYYHRPISINYRTEIDKPSQHHHHHH
7 | – | – | – | 3.5 | 58.5 | 1922G04(R25E) (designed binder, Anti-PCSK9 Adnectin, GSGS-His6 tail; the entry already carries the substitution) MGVSDVPRDLEVVAATPTSLLISWEPPSHAYGYYRITYGETGGNSPVQEFTVPIGKGTATISGLKPGVDYTITVYAVEYPWKGSGYYHRPISINYRTGSGSHHHHHH
8 | 105 | 3.8 | 0.656 | – | – | 2382B09 (designed binder) MGVSDVPRDLEVVAATPTSLLISWDAPADAYGYYRITYGETGGNSPVQEFTVPVSKGTATISGLKPGVDYTITVYAVEFDYPGSGYYHRPISINYRTEIDKPSQHHHHHH
9 | 132 | – | 2.79 | – | – | 2971A09 (designed binder) MGVSDVPRDLEVVAATPTSLLISWDAPADDYGYYRITYGETGGNSPVQEFTVPIGKGTATISGLKPGVDYTITVYAVEFPWPHAGYYHRPISINYRTEIDKPSQHHHHHH
10 | 100 | 3 | 2.35 | – | – | 2382B10 (designed binder) MGVSDVPRDLEVVAATPTSLLISWDAPADAYGYYRITYGETGGNSPVQEFTVPSSKGTATISGLKPGVDYTITVYAVEYDFPGSGYYHRPISINYRTEIDKPSQHHHHHH
11 | 101 | 0.9 | 1.86 | – | – | 2382H09 (designed binder) MGVSDVPRDLEVVAATPTSLLISWDAPAAAYGYYRITYGETGGNSPVQEFTVPSSKGTATISGLKPGVDYTITVYAVEFDFPGSGYYHRPISINYRTEIDKPSQHHHHHH
12 | 120 | – | 0.806 | – | – | 2971A03 (designed binder) MGVSDVPRDLEVVAATPTSLLISWDPPSDDYGYYRITYGETGGNSPVQEFTVPIGKGTATISGLKPGVDYTITVYAVEFPWPHAGYYHRPISINYRTEIDKPSQHHHHHH
13 | 122 | 3.5 | 0.757 | – | – | 2382C09 (designed binder) MGVSDVPRDLEVVAATPTSLLISWDAPAEGYGYYRITYGETGGNSPVQEFTVPVSKGTATISGLKPGVDYTITVYAVEFDFPGSGYYHRPISINYRTEIDKPSQHHHHHH
14 | 77.8 | 2.7 | – | – | – | 2382G03 (designed binder) MGVSDVPRDLEVVAATPTSLLISWDAPAEAEAYGYYRITYGETGGNSPVQEFTVPVSKGTATISGLKPGVDYTITVYAVEYVFPGAGYYHRPISINYRTEIDKPSQHHHHHH

The next lines start with the binder.

Row | Binder | LDLR Depletion (% inhibition at 75 nM) [1] [%] | EC50 [2] [nM] | Kd [3] [nM] | IC50 [4] [nM] | IC50 (cynomolgus monkey PCSK9) [nM]
15 | 2381H01 (designed binder) MGVSDVPRDLEVVAATPTSLLISWSPRDSTGLVRRGYYRITYGETGGNSPVQQFTVPGSKGTATISGLKPGVDYTITVYAVEYPYDHSGYYHRPISINYRTEIDKPSQHHHHHH | 22.2 | 4 | – | – | –
16 | 2451A10 (designed binder) MGVTDVPRDMEVVAATPTSLLISWQPPAVTYGYYRITYGETGGNSTLQQFTVPVYKGTATISGLKPGVDYTITVYAVEYPYDHSGYYHRPISINYRTEIDKPSQHHHHHH | 53.7 | 10.9 | – | – | –
17 | 2381B04 (designed binder) MGVSDVPRDLEVVAATPTSLLISWEPFSRLPGGGEYYRITYGETGGNSPLQQFTVPGSKGTATISGLKPGVDYTITVYAVEYPYEHSGYYHRPISINYRTEIDKPSQHHHHHH | 122 | 2.4 | 0.527 | – | –
18 | 2382D05 (designed binder) MGVSDVPRDLEVVAATPTSLLISWDAPADGGYGYYRITYGETGGNSPVQEFTVPVSKGTATISGLKPGVDYTITVYAVEFDFPGAGYYHRPISINYRTEIDKPSQHHHHHH | – | 2.6 | 0.314 | – | –
19 | 2381C08 (designed binder) MGVSDVPRDLEVVAATPTSLLISWDAPADGAYGYYRITYGETGGNSPVQEFTVPVSKGTATISGLKPGVDYTITVYAVEFPYPFAGYYHRPISINYRTEIDKPSQHHHHHH | 15.3 | 0.7 | – | – | –
20 | 2382A01 (designed binder) MGVSDVPRDLEVVAATPTSLLISWAAPAGGGYGYYRITYGETGGNSPVQEFTVPVSKGTATISGLKPGVDYTITVYAVEYDFPGAGYYHRPISINYRTEIDKPSQHHHHHH | 120 | 12.9 | – | – | –
21 | 2382F03 (designed binder) MGVSDVPRDLEVVAATPTSLLISWDAPAADAYGYYRITYGETGGNSPVQEFTVPVSKGTATISGLKPGVDYTITVYAVEFNFPGAGYYHRPISINYRTEIDKPSQHHHHHH | 88.6 | 2.7 | – | – | –
22 | 2381A08 (designed binder) MGVSDVPRDLEVVAATPTSLLISWDAPADGGYGYYRITYGETGGNSPVQEFTVPGSKGTATISGLKPGVDYTITVYAVEYDFPGAGYYHRPISINYRTEIDKPSQHHHHHH | 91.4 | 3.6 | – | – | –
23 | 2382H04 (designed binder) MGVSDVPRDLEVVAATPTSLLISWDAPAAGGYGYYRITYGETGGNSPVQEFTVPSSKGTATISGLKPGVDYTITVYAVEYDFPGAGYYHRPISINYRTEIDKPSQHHHHHH | 68.2 | 3.2 | – | – | –
24 | 1922G04(R25D) (designed binder, Anti-PCSK9 Adnectin, GSGS-His6 tail; the entry already carries the substitution) MGVSDVPRDLEVVAATPTSLLISWDPPSHAYGYYRITYGETGGNSPVQEFTVPIGKGTATISGLKPGVDYTITVYAVEYPWKGSGYYHRPISINYRTGSGSHHHHHH | – | – | – | 2.5 | 48.1
25 | 2382D09 (designed binder) MGVSDVPRDLEVVAATPTSLLISWDAPAEGYGYYRITYGETGGNSPVQEFTVPVSKGTATISGLKPGVDYTITVYAVEFDFPGAGYYHRPISINYRTEIDKPSQHHHHHH | 109 | 2.6 | 0.304 | – | –
26 | 2971E02 (designed binder) MGVSDVPRDLEVVAATPTSLLISWDAPSDDYGYYRITYGETGGNSPVQEFTVPIGKGTATISGLKPGVDYTITVYAVEFPWPHAGYYHRPISINYRTEIDKPSQHHHHHH | 126 | – | 1.78 | – | –
27 | 2382H10 (designed binder) MGVSDVPRDLEVVAATPTSLLISWDAPAGGYGYYRITYGETGGNSPVQEFTVPVSKGTATISGLKPGVDYTITVYAVEFDFPGSGYYHRPISINYRTEIDKPSQHHHHHH | 119 | 2.6 | 1.4 | – | –
28 | 2381G06 (designed binder) MGVSDVPRDLEVVAATPTSLLISWSEKLDGKARRGYYRITYGETGGNSPVQQFTVPGSKGTATISGLKPGVDYTITVYAVEFPYDHSGYYHRPISINYRTEIDKPSQHHHHHH | 57.7 | 9 | – | – | –
